{"source": "paper doi:10.1101/2024.12.01.626218", "molecular_target": "TTF2 1-100 (UniProt Q5NC05)", "experiment": "isothermal titration calorimetry", "conditions": "reference: unphosphorylated TRAIP 313-329 peptide; sites T325"}
{"substance": "TRAIP 313-329 (from UniProt Q8VIG6) pT325 TRAIP 313-329 peptide", "values": [{"measurement": "binding against the reference", "result": "gained"}]}
